The target of experiment [1] is human epidermal growth factor receptor (human EGFR) (human) (UniProt P00533). Briefly: flow cytometry, BD FACS Aria; RencaEGFR M1 H cells (human EGFR on the cell surface) stained with PE-anti hEGFR antibody for 30 minutes on ice.
The target is the same in experiment [2]. As to the kind of experiment: flow cytometry, BD FACS Aria; WI-38 cells stained with PE-anti hEGFR antibody for 30 minutes on ice.
The target is the same in experiment [3]. Briefly: flow cytometry, BD FACS Aria; MCF-7 cells (low EGFR expression) stained with PE-anti hEGFR antibody for 30 minutes on ice.
For experiment [4] the target is unchanged. Briefly: flow cytometry, Beckman Coulter CytoFLEX S; U87MG cells stained with PE-anti hEGFR antibody for 30 minutes on ice.
For experiment [5] the target is unchanged. Briefly: flow cytometry, Beckman Coulter CytoFLEX S; WI-38 cells stained with PE-anti hEGFR antibody for 30 minutes on ice.

Here are results for one substance from patent publication US20260174885A1.

Consider “PE-anti hEGFR antibody (Biolegend, Cat #352904)”, for which the MFI in experiment [1] came to 834000; in experiment [2], 53300; in experiment [3], 2670; in experiment [4] it was 1020; in experiment [5], 1100.
